# Assay results published in PMC5342261.
# Tests used:
# CH98 = experiment: ELISA
# HJ16 = experiment: ELISA
# VRC01 [1] = experiment: ELISA
# B6 = experiment: yeast display
# PGV04 = experiment: yeast display
# VRC01 [2] = experiment: yeast display
# B12 = experiment: yeast display
Substance,percent of parent (CH98),percent of parent (HJ16),percent of parent (VRC01 [1]),percent of parent (B6),percent of parent (PGV04),percent of parent (VRC01 [2]),percent of parent (B12)
AE.A244gp120 D368R,0%,98%,23%,–,–,–,–
AE.A244gp120 I371del; P363N,0%,80%,–,–,–,–,–
AE.A244gp120 N276A,0%,–,51%,–,–,–,–
AE.A244gp120 T278A,19%,13%,96%,–,–,–,–
"B.YU2gp120 core (ΔV1, V2, V3 loops) D368R",–,–,–,53%,7%,13%,–
"B.YU2gp120 core (ΔV1, V2, V3 loops) D397F",–,–,–,94%,–,73%,91%
"B.YU2gp120 core (ΔV1, V2, V3 loops) E269G",–,–,–,75%,83%,82%,95%
"B.YU2gp120 core (ΔV1, V2, V3 loops) G327R",–,–,–,95%,89%,95%,90%
"B.YU2gp120 core (ΔV1, V2, V3 loops) G434K",–,–,–,85%,85%,85%,76%
"B.YU2gp120 core (ΔV1, V2, V3 loops) G459E",–,–,–,99%,8%,28%,105%
"B.YU2gp120 core (ΔV1, V2, V3 loops) G473R",–,–,–,78%,17%,19%,113%
"B.YU2gp120 core (ΔV1, V2, V3 loops) H216Y",–,–,–,99%,96%,104%,108%
"B.YU2gp120 core (ΔV1, V2, V3 loops) I467K",–,–,–,93%,43%,48%,51%
"B.YU2gp120 core (ΔV1, V2, V3 loops) K121T",–,–,–,102%,73%,80%,100%
"B.YU2gp120 core (ΔV1, V2, V3 loops) K231T",–,–,–,94%,–,74%,98%
"B.YU2gp120 core (ΔV1, V2, V3 loops) K282V",–,–,–,61%,74%,50%,51%
"B.YU2gp120 core (ΔV1, V2, V3 loops) K490S",–,–,–,–,–,75%,89%

Substance,percent of parent (CH98),percent of parent (HJ16),percent of parent (VRC01 [1]),percent of parent (B6),percent of parent (PGV04),percent of parent (VRC01 [2]),percent of parent (B12)
"B.YU2gp120 core (ΔV1, V2, V3 loops) L265R",–,–,–,85%,79%,88%,91%
"B.YU2gp120 core (ΔV1, V2, V3 loops) L405D",–,–,–,99%,104%,109%,80%
"B.YU2gp120 core (ΔV1, V2, V3 loops) N197K",–,–,–,93%,86%,86%,89%
"B.YU2gp120 core (ΔV1, V2, V3 loops) Q337V",–,–,–,87%,89%,91%,88%
"B.YU2gp120 core (ΔV1, V2, V3 loops) Q344V",–,–,–,96%,79%,82%,94%
"B.YU2gp120 core (ΔV1, V2, V3 loops) Q442V",–,–,–,95%,92%,97%,72%
"B.YU2gp120 core (ΔV1, V2, V3 loops) R403V",–,–,–,96%,94%,99%,76%
"B.YU2gp120 core (ΔV1, V2, V3 loops) R412V",–,–,–,99%,100%,104%,87%
"B.YU2gp120 core (ΔV1, V2, V3 loops) R419G",–,–,–,98%,65%,–,13%
"B.YU2gp120 core (ΔV1, V2, V3 loops) R476V",–,–,–,13%,91%,62%,97%
"B.YU2gp120 core (ΔV1, V2, V3 loops) S365K",–,–,–,97%,8%,31%,28%
"B.YU2gp120 core (ΔV1, V2, V3 loops) S446K",–,–,–,100%,104%,108%,113%
"B.YU2gp120 core (ΔV1, V2, V3 loops) T240K",–,–,–,95%,88%,92%,101%
"B.YU2gp120 core (ΔV1, V2, V3 loops) T278K",–,–,–,98%,122%,196%,89%
"B.YU2gp120 core (ΔV1, V2, V3 loops) T455E",–,–,–,92%,31%,49%,14%
"B.YU2gp120 core (ΔV1, V2, V3 loops) V200K",–,–,–,90%,96%,99%,94%
